Measured values as given in patent US20250163130A1, “LIGAND GATED ION CHANNELS AND METHODS OF USE” (Trames Bio, Inc., priority 2022, published 2025).

What was measured:
Format in all cases: cell-based
CODA1237 = target: T1, CODA1237 (Homo sapiens, UniProt P36544, F159M/H163T/I152M/R155K/V154L/W156N/Y151P); experiment: Anion reporter (YFP quench) plate assay, ligand response of cells expressing CODA1237 compared with CODA71; details: FIG. 1, various ligand doses
T1 construct: expressed in transfected cells; host or cells: Lenti-X 293T (LX293T, Clontech) stably expressing mutant YFP (H148Q/I152L) reporter

HEK293T cells = tested on: HEK293T cells
[1] = tested on: Lenti-X 293T cells expressing mutant YFP reporter; experiment: Anion reporter (YFP quench) plate assay, responsiveness of engineered receptors to acetylcholine or TC-5619; details: FIG. 3, increasing doses of acetylcholine

Molecule | Responsiveness (percent quench of YFP fluorescence) of cells expressing CODA1237 compared with cells expressing CODA71 (CODA1237) | Surface expression level (mean fluorescent intensity of α-bungarotoxin staining positive cells) (HEK293T cells) | Responsiveness to acetylcholine (percent quench of YFP) using CODA71 as the reference point [1] | Percentage of surface expressing (α-bungarotoxin staining positive) cells (HEK293T cells)
c1ccc(-c2nnc(O[C@@H]3C4CC5C[C@H]3CN(C5)C4)s2)cc1 [ABT-126] | more responsive |  |  | 
O=C(N[C@@H]1CN2CCC1CC2)c1n[nH]c2ccccc12 [RG3487] | more responsive |  |  | 
CODA1298: α7-nAChR(Gly-cys) LBD: GlyRα2 IPD, SEQ ID NO: 65 comprising T225I mutation (protein, CHRNA7 (Cys-loop)/GLRA2) MRCSPGGVWLALAASLLHVSLQGEFQRKLYKELVKNYNPLERPVANDSQPLTVYFSLSLLQIMDVDEKNQVLTTNIWLQMSWTDHYLQWNVSEYPGVKTVRFPDGQIWKPDILLYNSADERFDATFHTNVLVNSSGHCQYLPPGIFKSSCPMDLKNFPMDVQTCKLKFGSWSYGGWSLDLQMQEADISGYIPNGEWDLVGIPGKRSERFYECCKEPYPDVTFTVIMRRRMGYYLIQMYIPSLLIVILSWVSFWINMDAAPARVALGITTVLTMTTQSSGSRASLPKVSYVKAIDIWMAVCLLFVFAALLEYAAVNFVSRQHKEFLRLRRRQKRQNKEEDVTRESRFNFSGYGMGHCLQVKDGTAVKATPANPLPQPPKDGDAIKKKFVDRAKRIDTISRAAFPLAFLIFNIFYWITYKIIRHEDVHKK |  | improves the surface expression level |  | 
CODA1237: α7-nAChR(Gly-cys) LBD: GlyRα2 IPD, SEQ ID NO: 65 (protein, CHRNA7 (Cys-loop)/GLRA2) MRCSPGGVWLALAASLLHVSLQGEFQRKLYKELVKNYNPLERPVANDSQPLTVYFSLSLLQIMDVDEKNQVLTTNIWLQMSWTDHYLQWNVSEYPGVKTVRFPDGQIWKPDILLYNSADERFDATFHTNVLVNSSGHCQYLPPGIFKSSCPMDLKNFPMDVQTCKLKFGSWSYGGWSLDLQMQEADISGYIPNGEWDLVGIPGKRSERFYECCKEPYPDVTFTVTMRRRMGYYLIQMYIPSLLIVILSWVSFWINMDAAPARVALGITTVLTMTTQSSGSRASLPKVSYVKAIDIWMAVCLLFVFAALLEYAAVNFVSRQHKEFLRLRRRQKRQNKEEDVTRESRFNFSGYGMGHCLQVKDGTAVKATPANPLPQPPKDGDAIKKKFVDRAKRIDTISRAAFPLAFLIFNIFYWITYKIIRHEDVHKK |  | higher surface expression |  | 
CODA1343: α7-nAChR(Gly-cys) LBD: GlyRα3 isoform K IPD, SEQ ID NO: 71 (protein, CHRNA7_(Cys-loop)/GLRA3 isoform K) MRCSPGGVWLALAASLLHVSLQGEFQRKLYKELVKNYNPLERPVANDSQPLTVYFSLSLLQIMDVDEKNQVLTTNIWLQMSWTDHYLQWNVSEYPGVKTVRFPDGQIWKPDILLYNSADERFDATFHTNVLVNSSGHCQYLPPGIFKSSCPMDLKNFPMDVQTCKLKFGSWSYGGWSLDLQMQEADISGYIPNGEWDLVGIPGKRSERFYECCKEPYPDVTFTVTMRRRMGYYLIQMYIPSLLIVILSWVSFWINMDAAPARVALGITTVLTMTTQSSGSRASLPKVSYVKAIDIWMAVCLLFVFSALLEYAAVNFVSRQHKELLRFRRKRKNKDDEVRESRFSFTAYGMGPCLQAKDGMTPKGPNHPVQVMPKSPDEMRKVFIDRAKKIDTISRACFPLAFLIFNIFYWVIYKILRHEDIHQQQD |  | higher surface expression | higher responsiveness | higher percentage of surface expressing cells
CODA1345: α7-nAChR LBD: GlyRα3 isoform K IPD, SEQ ID NO: 70 (protein, CHRNA7/GLRA3 isoform K) MRCSPGGVWLALAASLLHVSLQGEFQRKLYKELVKNYNPLERPVANDSQPLTVYFSLSLLQIMDVDEKNQVLTTNIWLQMSWTDHYLQWNVSEYPGVKTVRFPDGQIWKPDILLYNSADERFDATFHTNVLVNSSGHCQYLPPGIFKSSCYIDVRWFPFDVQHCKLKFGSWSYGGWSLDLQMQEADISGYIPNGEWDLVGIPGKRSERFYECCKEPYPDVTFTVTMRRRMGYYLIQMYIPSLLIVILSWVSFWINMDAAPARVALGITTVLTMTTQSSGSRASLPKVSYVKAIDIWMAVCLLFVFSALLEYAAVNFVSRQHKELLRFRRKRKNKDDEVRESRFSFTAYGMGPCLQAKDGMTPKGPNHPVQVMPKSPDEMRKVFIDRAKKIDTISRACFPLAFLIFNIFYWVIYKILRHEDIHQQQD |  | higher surface expression |  | higher percentage of surface expressing cells
CODA1344: α7-nAChR LBD: GlyRα3 isoform L IPD, SEQ ID NO: 63 (protein, CHRNA7/GLRA3 isoform L) MRCSPGGVWLALAASLLHVSLQGEFQRKLYKELVKNYNPLERPVANDSQPLTVYFSLSLLQIMDVDEKNQVLTTNIWLQMSWTDHYLQWNVSEYPGVKTVRFPDGQIWKPDILLYNSADERFDATFHTNVLVNSSGHCQYLPPGIFKSSCYIDVRWFPFDVQHCKLKFGSWSYGGWSLDLQMQEADISGYIPNGEWDLVGIPGKRSERFYECCKEPYPDVTFTVTMRRRMGYYLIQMYIPSLLIVILSWVSFWINMDAAPARVALGITTVLTMTTQSSGSRASLPKVSYVKAIDIWMAVCLLFVFSALLEYAAVNFVSRQHKELLRFRRKRKNKTEAFALEKFYRFSDMDDEVRESRFSFTAYGMGPCLQAKDGMTPKGPNHPVQVMPKSPDEMRKVFIDRAKKIDTISRACFPLAFLIFNIFYWVIYKILRHEDIHQQQD |  |  | lower responsiveness | 
